Broadly, the Kd is the constant that tells how readily two partners part at equilibrium.

For one molecule, binding result and Kd results are on record in patent US20230012273A1 (Boehringer Ingelheim, published 2023).

The target of experiment [1] is T1, full-length human SIRPβ1 (NP_006056.2) on cells (human, UniProt O00241 30-398).
T1 construct: on U937 SIRPα KO cells and Expi-CHO cells; also called β1 WT
As to the kind of experiment: flow cytometry, U937 SIRPα KO cells. The method, then:
Antibody binding to cells expressing full-length human SIRPβ1 (NP_006056.2) and SIRPβL (NP_001129316.1) is evaluated by flow cytometry. SIRPβ1- or SIRPβL-expressing U937^{SIRPα KO} cells are blocked with donkey IgG and incubated on ice with increasing concentrations of antibodies for 60 minutes, washed and stained with AF647-conjugated donkey F(ab′)₂ anti-human IgG secondary reagent. Cells are washed, fixed, and analyzed by flow cytometry. Median fluorescent intensity is determined and used as a measure of antibody binding.
(In general: Flow cytometry measures light scatter and fluorescence of single cells or particles in a stream.)

For experiment [2], the target named is T2, full-length human SIRPγ (NP_061026.2) on cells (human, UniProt Q9P1W8 29-387).
T2 construct: on CHO and Expi-CHO cells; endogenous on primary human CD3+ T cells; also called γ WT
T2 sequence (Q9P1W8 29-387): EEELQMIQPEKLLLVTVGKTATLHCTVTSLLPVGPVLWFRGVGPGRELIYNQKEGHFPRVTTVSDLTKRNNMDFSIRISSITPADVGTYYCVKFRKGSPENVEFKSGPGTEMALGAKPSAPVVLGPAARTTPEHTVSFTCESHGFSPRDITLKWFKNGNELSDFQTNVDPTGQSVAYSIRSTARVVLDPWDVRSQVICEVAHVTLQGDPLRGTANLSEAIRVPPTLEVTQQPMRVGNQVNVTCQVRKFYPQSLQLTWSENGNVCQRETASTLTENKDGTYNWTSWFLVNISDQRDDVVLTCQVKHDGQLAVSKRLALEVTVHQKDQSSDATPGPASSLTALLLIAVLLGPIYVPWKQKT
As to the kind of experiment: flow cytometry, primary human CD3+ T cells. The method, boiled down: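 Binding was read as median fluorescence intensity on the CD3+ gate after titrated antibody was applied to donkey-IgG-blocked human PBMCs. Incubation was 60 min on ice, followed by staining with an AF647-labelled anti-human IgG F(ab′)₂ secondary and fixation before flow analysis.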

Experiment [3] addresses T3, human SIRPβ1 extracellular domain + His-tag (NP_006056.2) (human, UniProt O00241 30-371).
T3 construct: also called hSIRPβ1; HuSIRPβ1
As to the kind of experiment: SPR, Ab captured, ECD-His analyte. Summed up:
(§1)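 In HBS-EP+ (1×), captured antibodies are exposed to a twofold concentration series of SIRP extracellular domain carrying a His tag, using 300 s contact at 30 μl/min and a 600 s dissociation window.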
(In SPR one partner is held on a chip, and binding of the other changes the refractive index at the surface.)

The target in experiment [4] is T4, human SIRPγ extracellular domain + His-tag (NP_061026.2) (human, UniProt Q9P1W8 29-360).
T4 construct: also called hSIRPγ; HuSIRPγ
T4 sequence (Q9P1W8 29-360): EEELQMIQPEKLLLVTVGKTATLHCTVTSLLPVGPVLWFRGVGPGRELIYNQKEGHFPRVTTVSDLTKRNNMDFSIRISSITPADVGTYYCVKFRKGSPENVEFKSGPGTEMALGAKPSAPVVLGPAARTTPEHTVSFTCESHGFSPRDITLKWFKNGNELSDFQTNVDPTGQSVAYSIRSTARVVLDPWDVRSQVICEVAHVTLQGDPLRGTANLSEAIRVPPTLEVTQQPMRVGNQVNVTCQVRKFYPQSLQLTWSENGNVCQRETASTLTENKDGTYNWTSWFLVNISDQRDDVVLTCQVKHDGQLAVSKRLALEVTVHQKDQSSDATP
As to the kind of experiment: SPR, Ab captured, ECD-His analyte. Summed up:
as §1

The target of experiment [5] is T5, human SIRPβL/SIRPβ1v3 extracellular domain + His-tag (NP_001129316.1) (human, UniProt Q5TFQ8 30-371).
T5 construct: also called hSIRPβ1v3; HuSIRPβ1v3
T5 sequence (Q5TFQ8 other isoform, or with tags, fused parts or gaps): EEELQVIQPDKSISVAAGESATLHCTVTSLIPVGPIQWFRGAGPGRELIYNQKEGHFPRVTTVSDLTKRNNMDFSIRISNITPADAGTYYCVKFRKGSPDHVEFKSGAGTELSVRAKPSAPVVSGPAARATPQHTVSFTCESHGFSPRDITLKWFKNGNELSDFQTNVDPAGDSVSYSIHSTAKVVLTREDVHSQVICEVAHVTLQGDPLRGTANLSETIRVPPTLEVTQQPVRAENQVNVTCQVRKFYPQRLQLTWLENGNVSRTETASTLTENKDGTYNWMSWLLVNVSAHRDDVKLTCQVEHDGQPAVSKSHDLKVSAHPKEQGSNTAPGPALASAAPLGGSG
As to the kind of experiment: SPR, Ab captured, ECD-His analyte. The method, boiled down:
as §1

Experiment [6] deals with T6, human SIRPαV1 extracellular domain + His-tag (NP_542970.1) (human, UniProt P78324 31-373).
T6 construct: also called hSIRPαV1; HuSIRPαV1
T6 sequence (P78324 other isoform, or with tags, fused parts or gaps): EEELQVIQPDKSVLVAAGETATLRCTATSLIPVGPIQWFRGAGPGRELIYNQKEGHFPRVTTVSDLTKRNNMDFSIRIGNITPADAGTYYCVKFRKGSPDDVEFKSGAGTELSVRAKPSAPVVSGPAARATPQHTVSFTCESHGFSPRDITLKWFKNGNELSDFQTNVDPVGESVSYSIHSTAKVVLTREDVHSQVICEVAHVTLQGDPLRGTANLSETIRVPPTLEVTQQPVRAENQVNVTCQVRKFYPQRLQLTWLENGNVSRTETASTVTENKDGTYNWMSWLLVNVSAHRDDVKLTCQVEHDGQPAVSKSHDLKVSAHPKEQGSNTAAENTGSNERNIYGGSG
As to the kind of experiment: SPR, Ab captured, ECD-His analyte. Summed up:
as §1

Experiment [7] has as its target T7, human SIRPαV2 extracellular domain + His-tag (CAA71403.1) (human, UniProt P78324 31-373).
T7 construct: also called hSIRPαV2; HuSIRPαV2
As to the kind of experiment: SPR, Ab captured, ECD-His analyte. Summed up: as §1

T1 sequence (O00241 30-398): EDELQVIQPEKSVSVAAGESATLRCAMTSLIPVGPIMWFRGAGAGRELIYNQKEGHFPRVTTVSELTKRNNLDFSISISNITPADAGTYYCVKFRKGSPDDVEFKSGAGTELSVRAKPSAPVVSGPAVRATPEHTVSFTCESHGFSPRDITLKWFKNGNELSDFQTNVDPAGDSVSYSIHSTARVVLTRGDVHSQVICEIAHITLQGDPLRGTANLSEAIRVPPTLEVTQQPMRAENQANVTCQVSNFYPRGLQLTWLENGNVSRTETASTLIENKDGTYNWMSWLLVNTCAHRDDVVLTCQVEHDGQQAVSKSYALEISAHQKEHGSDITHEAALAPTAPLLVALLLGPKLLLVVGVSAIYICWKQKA
T7 sequence (P78324 other isoform, or with tags, fused parts or gaps): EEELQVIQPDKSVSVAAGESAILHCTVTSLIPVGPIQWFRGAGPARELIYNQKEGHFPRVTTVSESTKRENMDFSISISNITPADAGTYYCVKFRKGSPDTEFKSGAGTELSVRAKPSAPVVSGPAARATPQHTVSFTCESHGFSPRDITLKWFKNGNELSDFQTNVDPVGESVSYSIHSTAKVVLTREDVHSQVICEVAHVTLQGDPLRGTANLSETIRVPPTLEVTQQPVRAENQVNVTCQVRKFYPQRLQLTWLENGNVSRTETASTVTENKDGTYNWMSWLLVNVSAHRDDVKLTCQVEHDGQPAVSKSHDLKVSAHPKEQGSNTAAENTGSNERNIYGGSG
T3 sequence (O00241 other isoform, or with tags, fused parts or gaps): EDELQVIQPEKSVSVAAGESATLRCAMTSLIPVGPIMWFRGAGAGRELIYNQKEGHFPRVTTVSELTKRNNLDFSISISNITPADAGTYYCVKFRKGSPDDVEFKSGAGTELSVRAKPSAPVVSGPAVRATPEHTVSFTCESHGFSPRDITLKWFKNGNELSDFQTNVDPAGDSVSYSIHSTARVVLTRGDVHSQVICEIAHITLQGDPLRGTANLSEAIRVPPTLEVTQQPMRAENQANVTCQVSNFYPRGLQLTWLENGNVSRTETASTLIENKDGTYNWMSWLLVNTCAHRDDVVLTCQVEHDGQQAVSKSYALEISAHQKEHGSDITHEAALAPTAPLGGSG

B1: Antibody E22 (antibody, human IgG1, kappa, L234A L235A, V domains shown)
VH: QVQLQESGPGLVKPSETLSLTCTVSGGSIRDYYWSWIRQPPGKGLEWIGFIYYNGRTFYQSSLKSRVTISLDTSKNQFSLKMTSVTAADTAVYYCARVRAYSGIGLDGTDVWGQGTTVTVSS
VL: DIVMTQSPLSLPVTPGEPASISCRSSQSLLYSTGYTYLDWYLQRPGQSPQLLIYGGSSRASGVPDRFSGSGSGTDFTLKISRVEAEDVGVFYCGQALQTPLTFGQGTKVEIKR
B1: the binding result in experiment [1] is recorded as “no binding”; in experiment [2], “no binding”; in experiment [3] it was “no binding (tested: 1000 nM)”; in experiment [4] it was “no binding (tested: 1000 nM)”. In addition, the Kd is 3.19 nM in experiment [5], 1.57 nM in experiment [6] and 1.47 nM in experiment [7].
